Kd data for one molecule are collected here from PMC5414288 (2017).

No end group written: not given here. *: point of attachment. HYNIC = NNc1ccc(C(=O)*)cn1

This test has as its target EGFR (on SKOV3 cells) (Homo sapiens, UniProt P00533). The test can be described thus: saturation binding assay on SKOV3 cells (radioligand).

One may read the Kd as the concentration at which binding is half-saturated. Lower therefore signals a tighter complex.

B1: HYNIC-SSS-GE11 peptide (peptide)
chain: {HYNIC}-SSSYHWYGYTPQNVI
modifications: also: 99mTc-tricine labeled
Take B1: the equilibrium dissociation constant (Kd) worked out at 73 nM.
